Source: patent US20150344570A1 (published 2015)

T1: FcγRIIb extracellular domain with C-terminal His tag (human, UniProt P31994 43-217)
T1 construct: extracellular domain; also called FcgRIIb; 2b; not shown: His tag at the C terminus
T1 sequence (looked up): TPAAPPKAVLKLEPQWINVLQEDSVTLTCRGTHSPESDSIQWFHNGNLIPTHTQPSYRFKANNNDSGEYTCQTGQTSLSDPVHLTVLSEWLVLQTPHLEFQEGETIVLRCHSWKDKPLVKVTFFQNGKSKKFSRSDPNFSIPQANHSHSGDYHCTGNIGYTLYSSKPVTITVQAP


How the values were obtained:
[1] = molecular target: T1, FcγRIIb extracellular domain with …; assay: SPR (Biacore), FcγR as analyte over captured antibody; GpH7-A5/GpH7-B3/GpL16-k0 = 100
[2] = molecular target: T2, FcγRIIIa extracellular domain with C-terminal His tag (human, UniProt P08637 17-208); assay: as above
T2 construct: extracellular domain; also called FcgRIIIa; 3a; not shown: His tag at the C terminus

[3] = molecular target: T2, FcγRIIIa extracellular domain with …; assay: SPR (Biacore); He/Con_3a divided by He/Con_2b (FcγRIIb)
FcγRIa = molecular target: T3, FcγRIa (human, UniProt P12314 16-292); assay: SPR (Biacore), relative binding; control HoCon Ab GpH7-B3/GpL16-k0
T3 construct: extracellular domain; also called FcgRI; FcgRIa; not shown: His tag attached to the C terminus
T3 sequence (P12314 16-292): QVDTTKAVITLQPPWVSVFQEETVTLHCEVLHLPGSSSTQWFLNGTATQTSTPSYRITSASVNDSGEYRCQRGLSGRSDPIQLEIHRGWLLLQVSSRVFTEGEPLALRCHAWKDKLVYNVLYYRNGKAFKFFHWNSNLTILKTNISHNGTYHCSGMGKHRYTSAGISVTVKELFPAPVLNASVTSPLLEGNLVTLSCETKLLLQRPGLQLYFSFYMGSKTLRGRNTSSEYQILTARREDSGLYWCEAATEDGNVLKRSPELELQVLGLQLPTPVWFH

T2 sequence (P08637 17-208): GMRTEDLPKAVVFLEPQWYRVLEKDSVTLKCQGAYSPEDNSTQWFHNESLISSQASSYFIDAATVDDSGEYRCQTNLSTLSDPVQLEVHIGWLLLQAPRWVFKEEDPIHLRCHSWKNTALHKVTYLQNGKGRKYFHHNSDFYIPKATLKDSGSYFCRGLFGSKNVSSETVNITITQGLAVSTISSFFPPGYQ

| Binder | He/Con_2b [1] | He/Con_3a [2] | He_3a/2b (IIIa/IIb) [3] | Ho/Con_1a (FcγRIa) |
| --- | --- | --- | --- | --- |
| GpH7-A5/GpH7-B3 variant Y296_14T/GpL16-k0 (antibody, human IgG1, kappa, Heterodimerized IgG1 antibody; alteration in the GpH7-B3 chain only; also called He Ab) heavy 1: not shown heavy 2: not shown light: DIVMTQSPLSLPVTPGEPASISCQASESLVHSNRNTYLHWYLQKPGQSPQLLIYKVSNRFSGVPDRFSGSGSGTDFTLKISRVEAEDVGVYYCSQNTHVPPTFGQGTKVEIERTVAAPSVFIFPPSDEQLKSGTASVVCLLNNFYPREAKVQWKVDNALQSGNSQESVTEQDSKDSTYSLSSTLTLSKADYEKHKVYACEVTHQGLSSPVTKSFNRGEC | 88.2 % of control | 64.5 % of control | 0.73 ratio |  |
| GpH7-B3 variant K334_01G/GpL16-k0 (antibody, human IgG1, kappa, Alteration in both H chains; also called Ho Ab K334_01G) heavy: not shown light: DIVMTQSPLSLPVTPGEPASISCQASESLVHSNRNTYLHWYLQKPGQSPQLLIYKVSNRFSGVPDRFSGSGSGTDFTLKISRVEAEDVGVYYCSQNTHVPPTFGQGTKVEIERTVAAPSVFIFPPSDEQLKSGTASVVCLLNNFYPREAKVQWKVDNALQSGNSQESVTEQDSKDSTYSLSSTLTLSKADYEKHKVYACEVTHQGLSSPVTKSFNRGEC |  |  |  | 106 % of control (=100) |
| GpH7-B3 variant I336_15Y/GpL16-k0 (antibody, human IgG1, kappa, Alteration in both H chains; also called Ho Ab I336_15Y) heavy: not shown light: DIVMTQSPLSLPVTPGEPASISCQASESLVHSNRNTYLHWYLQKPGQSPQLLIYKVSNRFSGVPDRFSGSGSGTDFTLKISRVEAEDVGVYYCSQNTHVPPTFGQGTKVEIERTVAAPSVFIFPPSDEQLKSGTASVVCLLNNFYPREAKVQWKVDNALQSGNSQESVTEQDSKDSTYSLSSTLTLSKADYEKHKVYACEVTHQGLSSPVTKSFNRGEC |  |  |  | 110 % of control (=100) |
| GpH7-A5/GpH7-B3 variant Y300_10E/GpL16-k0 (antibody, human IgG1, kappa, Heterodimerized IgG1 antibody; alteration in the GpH7-B3 chain only; also called He Ab) heavy 1: not shown heavy 2: not shown light: DIVMTQSPLSLPVTPGEPASISCQASESLVHSNRNTYLHWYLQKPGQSPQLLIYKVSNRFSGVPDRFSGSGSGTDFTLKISRVEAEDVGVYYCSQNTHVPPTFGQGTKVEIERTVAAPSVFIFPPSDEQLKSGTASVVCLLNNFYPREAKVQWKVDNALQSGNSQESVTEQDSKDSTYSLSSTLTLSKADYEKHKVYACEVTHQGLSSPVTKSFNRGEC | 134 % of control | 104 % of control | 0.78 ratio |  |

Other lines, results leading:

| He/Con_2b [1] | He/Con_3a [2] | He_3a/2b (IIIa/IIb) [3] | Ho/Con_1a (FcγRIa) | Binder |
| --- | --- | --- | --- | --- |
|  |  |  | 103 % of control (=100) | GpH7-B3 variant K326_03V/GpL16-k0 (antibody, human IgG1, kappa, Alteration in both H chains; also called Ho Ab K326_03V) heavy: not shown light: DIVMTQSPLSLPVTPGEPASISCQASESLVHSNRNTYLHWYLQKPGQSPQLLIYKVSNRFSGVPDRFSGSGSGTDFTLKISRVEAEDVGVYYCSQNTHVPPTFGQGTKVEIERTVAAPSVFIFPPSDEQLKSGTASVVCLLNNFYPREAKVQWKVDNALQSGNSQESVTEQDSKDSTYSLSSTLTLSKADYEKHKVYACEVTHQGLSSPVTKSFNRGEC |
|  |  |  | 114 % of control (=100) | GpH7-B3 variant I336_16H/GpL16-k0 (antibody, human IgG1, kappa, Alteration in both H chains; also called Ho Ab I336_16H) heavy: not shown light: DIVMTQSPLSLPVTPGEPASISCQASESLVHSNRNTYLHWYLQKPGQSPQLLIYKVSNRFSGVPDRFSGSGSGTDFTLKISRVEAEDVGVYYCSQNTHVPPTFGQGTKVEIERTVAAPSVFIFPPSDEQLKSGTASVVCLLNNFYPREAKVQWKVDNALQSGNSQESVTEQDSKDSTYSLSSTLTLSKADYEKHKVYACEVTHQGLSSPVTKSFNRGEC |
| 92.2 % of control | 73.4 % of control | 0.8 ratio |  | GpH7-A5/GpH7-B3 variant Y296_16H/GpL16-k0 (antibody, human IgG1, kappa, Heterodimerized IgG1 antibody; alteration in the GpH7-B3 chain only; also called He Ab) heavy 1: not shown heavy 2: not shown light: DIVMTQSPLSLPVTPGEPASISCQASESLVHSNRNTYLHWYLQKPGQSPQLLIYKVSNRFSGVPDRFSGSGSGTDFTLKISRVEAEDVGVYYCSQNTHVPPTFGQGTKVEIERTVAAPSVFIFPPSDEQLKSGTASVVCLLNNFYPREAKVQWKVDNALQSGNSQESVTEQDSKDSTYSLSSTLTLSKADYEKHKVYACEVTHQGLSSPVTKSFNRGEC |
| 91.5 % of control | 72.1 % of control | 0.79 ratio |  | GpH7-A5/GpH7-B3 variant Y296_18N/GpL16-k0 (antibody, human IgG1, kappa, Heterodimerized IgG1 antibody; alteration in the GpH7-B3 chain only; also called He Ab) heavy 1: not shown heavy 2: not shown light: DIVMTQSPLSLPVTPGEPASISCQASESLVHSNRNTYLHWYLQKPGQSPQLLIYKVSNRFSGVPDRFSGSGSGTDFTLKISRVEAEDVGVYYCSQNTHVPPTFGQGTKVEIERTVAAPSVFIFPPSDEQLKSGTASVVCLLNNFYPREAKVQWKVDNALQSGNSQESVTEQDSKDSTYSLSSTLTLSKADYEKHKVYACEVTHQGLSSPVTKSFNRGEC |
